Measurements: IntAct's records for PubMed 23446637

B1: IQ calmodulin-binding motif-containing protein 1 (Homo sapiens), Q15051 (parent)
chain: MKPTGTDPRILSIAAEVAKSPEQNVPVILLKLKEIINITPLGSSELKKIKQDIYCYDLIQYCLLVLSQDYSRIQGGWTTISQLTQILSHCCVGLEPGEDAEEFYNELLPSAAENFLVLGRQLQTCFINAAKAEEKDELLHFFQIVTDSLFWLLGGHVELIQNVLQSDHFLHLLQADNVQIGSAVMMMLQNILQINSGDLLRIGRKALYSILDEVIFKLFSTPSPVIRSTATKLLLLMAESHQEILILLRQSTCYKGLRRLLSKQETGTEFSQELRQLVGLLSPMVYQEVEEQKLHQAACLIQAYWKGFQTRKRLKKLPSAVIALQRSFRSKRSKMLLEINRQKEEEDLKLQLQLQRQRAMRLSRELQLSMLEIVHPGQVEKHYREMEEKSALIIQKHWRGYRERKNFHQQRQSLIEYKAAVTLQRAALKFLAKCRKKKKLFAPWRGLQELTDARRVELKKRVDDYVRRHLGSPMSDVVSRELHAQAQERLQHYFMGRALEERAQQHREALIAQISTNVEQLMKAPSLKEAEGKEPELFLSRSRPVAAKAKQAHLTTLKHIQAPWWKKLGEESGDEIDVPKDELSIELENLFIGGTKPP

Variants of: B1
Details: with ce290_human CEP290, O15078
Chain of ce290_human CEP290, O15078 (O15078 whole entry): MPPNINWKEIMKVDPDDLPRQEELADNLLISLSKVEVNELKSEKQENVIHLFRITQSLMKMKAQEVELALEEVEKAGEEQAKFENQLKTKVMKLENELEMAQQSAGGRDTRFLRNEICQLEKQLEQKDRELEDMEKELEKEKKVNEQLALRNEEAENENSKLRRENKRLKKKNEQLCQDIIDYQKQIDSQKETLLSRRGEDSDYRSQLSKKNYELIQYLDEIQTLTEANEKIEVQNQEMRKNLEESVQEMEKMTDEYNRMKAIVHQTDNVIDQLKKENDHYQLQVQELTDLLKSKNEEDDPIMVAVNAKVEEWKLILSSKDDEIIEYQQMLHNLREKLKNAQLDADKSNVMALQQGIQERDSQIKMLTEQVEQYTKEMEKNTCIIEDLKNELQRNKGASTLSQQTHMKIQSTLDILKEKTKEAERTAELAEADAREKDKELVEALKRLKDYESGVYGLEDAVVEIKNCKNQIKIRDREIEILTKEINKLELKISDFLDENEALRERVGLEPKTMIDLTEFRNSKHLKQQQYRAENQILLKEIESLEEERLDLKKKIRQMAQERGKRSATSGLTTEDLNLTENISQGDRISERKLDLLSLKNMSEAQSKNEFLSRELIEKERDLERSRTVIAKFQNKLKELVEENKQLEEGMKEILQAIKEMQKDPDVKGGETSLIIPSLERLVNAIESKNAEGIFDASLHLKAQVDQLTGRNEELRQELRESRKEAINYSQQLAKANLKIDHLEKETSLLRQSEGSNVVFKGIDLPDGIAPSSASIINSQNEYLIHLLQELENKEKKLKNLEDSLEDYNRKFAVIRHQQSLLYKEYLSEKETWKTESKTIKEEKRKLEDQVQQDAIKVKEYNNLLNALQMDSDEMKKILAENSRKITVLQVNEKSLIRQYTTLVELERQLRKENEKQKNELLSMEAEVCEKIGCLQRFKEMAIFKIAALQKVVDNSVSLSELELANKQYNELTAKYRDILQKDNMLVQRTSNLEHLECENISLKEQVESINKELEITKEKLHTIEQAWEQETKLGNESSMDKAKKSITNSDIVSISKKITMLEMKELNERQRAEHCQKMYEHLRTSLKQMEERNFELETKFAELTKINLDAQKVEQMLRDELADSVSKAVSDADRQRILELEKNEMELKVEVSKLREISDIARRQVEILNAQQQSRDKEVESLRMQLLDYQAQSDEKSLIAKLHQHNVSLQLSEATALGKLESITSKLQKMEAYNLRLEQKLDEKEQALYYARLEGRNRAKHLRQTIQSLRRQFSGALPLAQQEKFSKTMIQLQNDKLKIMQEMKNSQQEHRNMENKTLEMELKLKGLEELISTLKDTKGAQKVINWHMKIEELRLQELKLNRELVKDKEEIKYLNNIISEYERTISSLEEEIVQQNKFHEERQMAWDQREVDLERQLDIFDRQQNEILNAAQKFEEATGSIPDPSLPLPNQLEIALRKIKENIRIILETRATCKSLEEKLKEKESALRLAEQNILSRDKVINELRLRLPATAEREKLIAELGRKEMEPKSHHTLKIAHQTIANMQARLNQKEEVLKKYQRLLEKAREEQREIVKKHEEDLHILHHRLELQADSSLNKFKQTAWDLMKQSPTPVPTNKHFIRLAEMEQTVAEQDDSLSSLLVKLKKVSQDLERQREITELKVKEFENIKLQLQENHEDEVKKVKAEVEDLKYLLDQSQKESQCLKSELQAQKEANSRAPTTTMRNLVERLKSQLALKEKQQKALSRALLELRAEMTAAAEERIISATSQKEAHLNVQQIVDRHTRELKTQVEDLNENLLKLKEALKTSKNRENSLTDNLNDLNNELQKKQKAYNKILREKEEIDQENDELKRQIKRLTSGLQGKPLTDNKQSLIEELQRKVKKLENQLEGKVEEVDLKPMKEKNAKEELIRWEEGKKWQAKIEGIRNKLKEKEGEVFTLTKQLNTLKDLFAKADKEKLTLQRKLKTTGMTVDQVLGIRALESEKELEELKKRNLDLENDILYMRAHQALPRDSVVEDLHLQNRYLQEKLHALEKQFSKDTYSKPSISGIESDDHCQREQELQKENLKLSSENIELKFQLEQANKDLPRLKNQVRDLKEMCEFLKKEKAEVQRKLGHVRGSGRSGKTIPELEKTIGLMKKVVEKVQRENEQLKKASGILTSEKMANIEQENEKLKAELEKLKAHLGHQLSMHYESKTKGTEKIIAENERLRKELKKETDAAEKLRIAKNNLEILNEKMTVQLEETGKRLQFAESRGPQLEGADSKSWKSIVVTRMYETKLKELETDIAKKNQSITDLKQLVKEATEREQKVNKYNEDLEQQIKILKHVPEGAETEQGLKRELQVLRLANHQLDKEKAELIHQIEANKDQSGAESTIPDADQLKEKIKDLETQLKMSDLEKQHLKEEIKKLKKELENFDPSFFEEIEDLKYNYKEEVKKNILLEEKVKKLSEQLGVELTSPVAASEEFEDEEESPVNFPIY

Row | effect of a mutation on the interaction | Variant
1 | disrupting interaction | A549K
